Test results reported in patent US20090209022A1 (AstraZeneca / MedImmune, published 2009).

Target: the molecule itself
Test: X-ray crystallography, partial model and electron density map

B1: H. influenzae pyrH UMP kinase (HI-1065), SeMet labelled, expressed from pSM145 (enzyme)
chain: GQPIYKRILLKLSGEALQGEDGLGIDPAILDRMAVEIKELVEMGVEVSVVLGGGNLFRGAKLAKAGMNRVVGDHMGMLATVMNGLAMRDSLFRADVNAKLMSAFQLNGICDTYNWSEAIKMLREKRVVIFSAGTGNPFFTTDSTACLRGIEIEADVVLKATKVDGVYDCDPAKNPDAKLYKNLSYAEVIDKELKVMDLSAFTLARDHGMPIRVFNMGKPGALRQVVTGTEEGTTIC
modifications: all methionines substituted with seleno-methionine (SeMet) in the crystallised protein
notes: Homohexamer (trimer of dimers); The crystal asymmetric unit holds eight chains: one hexamer and one dimer that gives a hexamer by crystallographic symmetry; The crystal also holds GTP (modelled as GDP) and phosphate
binding result: binds
